Assay results: patent US20090286719A1

What was measured:
[1] = target: a site on the cancer and normal cell surface (human); experiment: whole-cell binding assay on UISO-Mel-2 cells with 125I azurin, Scatchard analysis
[2] = target: a site on the cancer and normal cell surface (human); experiment: whole-cell binding assay on UISO-Mel-2 cells, 125I azurin with or without unlabeled competitor, Scatchard analysis

| Substance | Bmax [1] | Kd [1] | Bmax [2] |
| --- | --- | --- | --- |
| azurin from Pseudomonas aeruginosa (wt-azurin) | 0.48 pm | 10 nM |  |
| p18, Leu50-Gly67 of Pseudomonas aeruginosa azurin (peptide) |  |  | 0.51 pm |
| p28, Leu50-Asp77 of Pseudomonas aeruginosa azurin (peptide) |  |  | 3 |
